Measured values reported in patent US20240279318A1 (published 2024).
Changes are numbered by the printed parent chain. Like-named read-outs stand apart in the source and are kept apart here.

B1: AS170036 VL1VH1-98I108A (scFv)
scFv: QSALTQPRSVSGSPGQSVTISCAGTSSDVGSENYVSWYQQHPGKAPKLMIYQVNKRASGVPDRFSGSKSGNTASLTISGLQAEDEADYYCASYRSSDINIVFGGGTKLTVLGGGGSGGGGSGGGGSEVQLVESGGGLVQPGGSLRLSCAASGFTFSSYAMSWVRQAPGKGLEWVSTINSGTGSPYYADSVKGRFTISRDNSKNTLYLQMNSLRAEDTAVYYCAKNFFDGSWFLAPPAMDYWGQGTLVTVSSHHHHHH
B2: AS170036 VL1VH1-57M98Q (scFv)
scFv: B1 scFv with I98Q, S183M, A234G
B3: AS170036 VL1VH1 (scFv)
scFv: B1 scFv with I98H, A234G
B4: AS148691 scFv-mIgG2aFc (Fc fusion)
chain: DIQMTQSPSSLSASVGDRVTITCRASQSVSSAVAWYQQKPGKAPKLLIYSASSLYSGVPSRFSGSRSGTDFTLTISSLQPEDFATYYCQQYYGAYLITFGQGTKVEIKGGGGSGGGGSGGGGSEVQLVESGGGLVQPGGSLRLSCAASGFNLYYSSIHWVRQAPGKGLEWVASIYSSYGSTSYADSVKGRFTISADTSKNTAYLQMNSLRAEDTAVYYCARVGPGYYGIDYWGQGTLVTVSS
B5: AS167830 sdAb-mIgG2aFc (Fc fusion)
chain: QVKLVESGGGSVQAGGSLRLSCAASRSSEYMNRRFCMGWFRQASGKEREGVAVVYIGGGRTYYADSVKGRFTISQDNAKNTLYLQMNNLKPEDTAMYYCTADVDPYESSWSRDLGYWGQGTQVTVSS
B6: AS167821 sdAb-mIgG2aFc (Fc fusion)
chain: QVRLVESGGGSVQAGGSLRLSCAASGRTYSTYCMGWFRQAPGKEREGVATIYIGSGRTYYVDSVKGRFTISQDNAKNTLYLQMNNLKPEDTAMYYCTADVDPYESSWSRGLGYWGQGTQVTVSS
B7: AS179732 scFv-mIgG2aFc (Fc fusion)
chain: NFMLTQPPSMSGSPRQSVTISCTGSSSNIGGNYVNWYQHLPGTAPKLLIYDNSNRASGVPERFSGSKSGSSASLTITGLQAEDEGDYYCASWDDSLSGAVFGGGTHLTVLGGGGSGGGGSGGGGSEVQLVESGGGLVQPGGSLRLSCAASGFTFLNYAMSWVRQAPGKGLEWVSSNSGAGSTYYSDSVKGRFTISRDYAKNVVYLQLNSLKTEDTGMYYCAKGTNVGSWSSLHYWGQGTQVTVSS
B8: AS179723 scFv-mIgG2aFc (Fc fusion)
chain: B7 chain with N1Q, F2A, M3G, S27N, S53K, A56P, R62Q, F63I, G98A, A99V
B9: AS170036 scFv-mIgG2aFc (Fc fusion)
chain: QLVLTQPSSVSGTPGQTVTISCAGTSSDVGSENYVSWYRQLPGTAPKLLIYQVNKRASGIADRFSGSKSGNTASMTISGLQSADEADYYCASYRSSDHNIVFGGGTHLTVLGGGGSGGGGSGGGGSAVQLVESGGGLVQPGGSLRLSCTASGFTFSSYAMSWVRQAPGKGLEWVSTINSGTGSPYYADSVKGRFTISRDNAKNTLYLQLNSLKTEDTAMYYCAKNFFDGSWFLGPPAMDYWGKGTLVTISS

What was measured:
[1] = target: AFP158/HLA-A*02:01 complex; assay: SPR
A*02:05 = assay: SPR; low fitting confidence
A*02:02 = assay: SPR; low fitting confidence
A*02:11 [2] = assay: SPR; low fitting confidence
A*02:03 = assay: SPR; low fitting confidence
A*02:07 = assay: SPR; low fitting confidence
A*02:06 = assay: SPR
A*02:11 [3] = assay: SPR
AFP158 loaded T2 cells = AFP158 loaded T2 cells (human;, UniProt P61769 21-119); assay: flow cytometry
[4] = target: AFP158/HLA-A*02:01 complex; assay: SPR; remark: listed apart in the source

Binder | Kd [1] [nM] | Kd (A*02:02) [nM] | Kd (A*02:03) [nM] | Kd (A*02:07) [nM] | Kd (A*02:06) [nM] | EC50 (AFP158 loaded T2 cells) [nM] | Kd [4] [nM] | also measured
B1 | 22 | > 530 | > 31000 | > 16000 | 330 | – | – | Kd (A*02:05): > 1100 nM; Kd (A*02:11 [2]): > 250 nM
B2 | 46 | > 910 | > 43000 | > 19000 | 570 | – | – | Kd (A*02:05): > 910 nM; Kd (A*02:11 [3]): 360 nM
B3 | 710 | > 1500 | > 2800 | > 18000 | 5100 | – | – | Kd (A*02:11 [3]): 220 nM
B4 | – | – | – | – | – | 413 | – | –
B5 | – | – | – | – | – | 6.14 | – | –
B6 | – | – | – | – | – | 3.63 | – | –
B7 | – | – | – | – | – | 1.15 | 39.8 | –
B8 | – | – | – | – | – | 1.48 | 80.4 | –
B9 | – | – | – | – | – | 4.35 | 387 | –
